In patent US20200399385A1 (Bristol-Myers Squibb, published 2020):
Values joined by “and” are separate entries in the source; they are usually repeats but may differ in a detail not shown here. Equal entries are not always repeated.

Experiments:
cynomolgus OX40 on cells [1] = target: T1, cynomolgus OX40 on cells (cynomolgus, UniProt P43489 29-277 (human entry)); test: FACS, activated cyno T cells; mean ± SD, n=4; mean ± SD of n=4 experiments (Table 8), not the single experiment of FIGS. 12A and 12B
T1 construct: also called cynoOX40-CHO
T1 chain: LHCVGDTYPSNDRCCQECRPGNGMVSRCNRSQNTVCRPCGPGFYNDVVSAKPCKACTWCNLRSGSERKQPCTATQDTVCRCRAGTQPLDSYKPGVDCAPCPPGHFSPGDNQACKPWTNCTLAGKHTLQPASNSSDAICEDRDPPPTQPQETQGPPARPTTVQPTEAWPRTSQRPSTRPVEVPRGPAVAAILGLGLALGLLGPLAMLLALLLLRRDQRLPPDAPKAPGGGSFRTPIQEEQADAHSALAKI
Description: (§1) Briefly, cells were activated for several days before the binding assay in order to induce OX40 expression. Total leukocytes were isolated from cynomolgus macaque peripheral blood by lysis of red blood cells using an ammonium chloride buffer. The leukocytes were then cultured for four to five days with in flasks pre-coated with anti-human CD3 plus anti-human CD28 antibodies that cross-react with cynomolgus macaque, in the presence of recombinant human IL-2, in order to expand and activate T cells. On the day of the assay, the cells were harvested and stained with a titration of each anti-OX40 antibody. Bound antibodies were detected with a fluorescently conjugated anti-human IgG polyclonal secondary antibody, and the cells were co-stained for CD4 and CD25 to detect activated CD4 T cells. The fluorescence intensity of the staining was measured using a FACSCanto II flow cytometer (Becton Dickinson). The geometric mean fluorescence intensity (GMFI) or median fluorescence intensity (MedFI) of anti-OX40 antibody staining was calculated for the CD4+CD25+ population (FACSDiva software). Dose-response curves were generated and EC50s for antibody binding were calculated using GraphPad Prism software.

human OX40 on cells [2] = target: T2, human OX40 on cells (human, UniProt P43489 29-277); test: FACS, activated human T cells; mean ± SD, n=2
T2 construct: also called hOX40-293 cells; hOX40-HT1080
T2 sequence: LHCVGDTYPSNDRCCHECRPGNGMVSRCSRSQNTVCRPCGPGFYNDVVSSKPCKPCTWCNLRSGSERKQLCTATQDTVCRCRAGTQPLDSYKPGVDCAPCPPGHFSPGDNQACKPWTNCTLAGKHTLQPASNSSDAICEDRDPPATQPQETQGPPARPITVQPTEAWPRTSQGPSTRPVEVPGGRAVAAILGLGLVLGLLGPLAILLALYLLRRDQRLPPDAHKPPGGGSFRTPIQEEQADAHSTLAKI
Description: (§2) Cells were activated for several days before the binding assay in order to induce OX40 expression. Briefly, PBMCs were cultured for three or four days with magnetic beads coated with anti-human CD3 plus anti-human CD28, in the presence of recombinant human IL-2. On the day of the assay, the beads were removed and the cells stained with a titration of each anti-OX40 antibody. Bound antibodies were detected with a fluorescently conjugated anti-human IgG polyclonal secondary antibody, and the cells were co-stained for CD4 and CD25 to detect activated CD4 T cells. The fluorescence intensity of the staining was measured using a FACSCanto II flow cytometer (Becton Dickinson). The geometric mean fluorescence intensity (GMFI) or median fluorescence intensity (MedFI) of anti-OX40 antibody staining was calculated for the CD4+CD25+ population (FACSDiva software). EC₅₀s for antibody binding were calculated using GraphPad Prism software.

human OX40 on cells [3] = target: T2, human OX40 on cells; test: FACS competition on hOX40-293 cells: unlabeled antibody first, then PE-labeled L106 (2.5 ug/mL per the text)
Description: Briefly, 293 cells stably transfected with human OX40 were first incubated with varying concentrations of unlabeled anti-OX40 antibodies. […] The fluorescence intensity of the staining was measured using a FACSCanto II flow cytometer (Becton Dickinson).

[4] = target: T3, his-tagged soluble human OX40 (huOX40-6xhis) (human, UniProt P43489 29-214); test: SPR, mAb captured on anti-human CH1, OX40-6XHIS analyte, 1:1 fit
T3 construct: made in-house; also called Human-OX40-6XHIS; hOX40; not shown: hexahistidine tag
T3 sequence: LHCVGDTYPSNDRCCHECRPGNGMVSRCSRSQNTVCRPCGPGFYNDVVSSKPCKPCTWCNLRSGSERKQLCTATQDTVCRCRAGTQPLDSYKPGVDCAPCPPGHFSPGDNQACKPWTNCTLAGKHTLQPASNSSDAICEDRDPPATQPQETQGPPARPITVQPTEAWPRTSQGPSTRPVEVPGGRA
Description: The affinity of several OX40 antibodies for soluble human OX40 was tested by SPR analysis. […] Human-OX40-6XHIS antigen in either a single concentration of 400 nM or a 1:2 serial dilution from 400 nM was used. Experiments were carried out on BIACORE® T200 or BIACORE® 3000 SPR instruments. Data was fit to a 1:1 model.

human OX40 on cells [5] = target: T2, human OX40 on cells; test: FACS, blocking of OX40L-His (0.2 µg/mL) binding to hOX40-293 cells
Description: Briefly, 293 cells stably transfected with human OX40 were first pre-incubated with varying concentrations of anti-OX40 antibodies. […] The fluorescence intensity of the staining was measured using a FACSCanto II flow cytometer (Becton Dickinson).

cynomolgus OX40 on cells [6] = target: T1, cynomolgus OX40 on cells; test: FACS, activated cyno CD4 T cells
Description: as §1
The same experiment was performed with anti-OX40 antibodies with variable region substitutions.

human OX40 on cells [7] = target: T2, human OX40 on cells; test: cell-based or functional assay
cynomolgus OX40 on cells [8] = target: T1, cynomolgus OX40 on cells; test: FACS, activated cyno T cells; mean ± SD, n=3
Description: as §1

human OX40 on cells [9] = target: T2, human OX40 on cells; test: cell-based or functional assay; remark: listed apart in the source
human OX40 on cells [10] = target: T2, human OX40 on cells; test: FACS, activated human T cells; mean ± SD, n=5
cynomolgus OX40 on cells [11] = target: T1, cynomolgus OX40 on cells; test: FACS, activated cyno T cells; mean ± SD, n=4
Description: as §1

human OX40 on cells [12] = target: T2, human OX40 on cells; test: FACS competition on hOX40-293 cells against biotin-OX40.5 (spike biotOX.5 @ 0.4 ug/mL, streptavidin-APC); FL4-MFI falls from about 8700 to about 3800; the table gives no unit, axis in nM
Description: (§3) This experiment was performed to test the cross-blocking properties of various anti-OX40 antibodies to assess binding specificities. […] Cells were washed and if necessary further incubated in the presence of streptavidin-APC conjugate under the same conditions. After the final wash, cells were analyzed on a FACSCanto flow cytometer (BD Bioscience, San Jose, Calif.). Mean fluorescence intensity (MFI) signal was proportional to bound conjugated antibody.

human OX40 on cells [13] = target: T2, human OX40 on cells; test: FACS, activated human T cells; mean ± SD, n=3
Description: as §2

human OX40 on cells [14] = target: T2, human OX40 on cells; test: FACS competition on hOX40-293 cells against biotin-OX40.4 (spike biotOX.4 @ 0.4 ug/mL, streptavidin-APC); partial inhibition, FL4-MFI falls from about 12700 to about 8800 at about 130 nM; the table gives no unit, axis in nM
Description: as §3

human OX40 on cells [15] = target: T2, human OX40 on cells; test: immunohistochemistry, HT1080/huOX40 cells
Text: Fresh, frozen and/or OCT-embedded human tissues were purchased from multiple commercial tissue networks/vendors (Asterand Inc. Detroit, Mich.; Cooperative Human Tissue Network, Philadelphia, Pa.; ProteoGenex Inc, Culver City, Calif.). […] A nonspecific fluoresceinated human IgG1 was used as isotype control antibody. HT1080 cells stably expressing human OX40 (HT1080/huOX40) and hyperplasic human tonsil tissue sections were used as positive control cells and tissues. […] Stained slides were evaluated under a light microscope.

human OX40 on cells [16] = target: T2, human OX40 on cells; test: FACS competition on HT1080-hOX40 cells against APC-OX40.1 (FL2 MFI); the table gives no unit, axis 'Ab conc nM'
Description: as §3

human OX40 on cells [17] = target: T2, human OX40 on cells; test: FACS competition on hOX40-293 cells against biotin-OX40.5 (spike biotOX.5 @ 0.4 ug/mL, streptavidin-APC); FL4-MFI falls from about 8700 to about 2900; the table gives no unit, axis in nM
Description: as §3

human OX40 on cells [18] = target: T2, human OX40 on cells; test: FACS competition on hOX40-293 cells against biotin-OX40.4 (spike biotOX.4 @ 0.4 ug/mL, streptavidin-APC); partial inhibition, FL4-MFI falls from about 12700 to about 6000; the table gives no unit, axis in nM
Description: as §3

Binder	Kd [4]	koff [4]	kon [4]	EC50 (human OX40 on cells [5])	EC50 (cynomolgus OX40 on cells [6])	Proliferation EC50, CD4 T cells + CHO-CD3-CD32A (human OX40 on cells [7])	EC50 (cynomolgus OX40 on cells [11])	EC50 (human OX40 on cells [13])	further results
18E9 (antibody, V domains shown, human mAb from hybridoma; also called 18E9.G5.H4; 18E9.G5) VH: EVQLVQSGGGLVHPGGSLRLSCAHSGFTFTSSAMHWVRQAPGKGLEWISAIGTGGDTYYADSVKGRFTISRDNAKNSLYLQINSLRAEDMAVYYCARDFYDILTGIFDYWGQGTLVTVSS VL: DIQMTQSPSSVSASVGDRVTITCRASQGISSWLAWYQHKPGKAPKLLIYAASSLQSGVPSRFSGSGSGTDFTLTISSLQPEDFATYYCQQANSFPSTFGQGTKVEIK	2.04 nM	0.000139 s⁻¹	68300 M⁻¹ s⁻¹	0.48 nM	1 to 1.5 nM	0.01 nM	–	–	EC50 (cynomolgus OX40 on cells [1]): 41.7 nM; EC50 (human OX40 on cells [2]): 0.22 nM; IC50 (read off the curve) (human OX40 on cells [3]): ~1 µg/mL
OX40.16 (antibody, human IgG1, kappa, V domains shown) VH: EVQLVQSGGGLVQPGGSLRLSCAGSGFTFSSYAMYWVRQAPGKGLEWVSAIDTDGGTFYADSVRGRFTISRDNAKNSLYLQMNSLRAEDTAVYFCARLGEGYFFDYWGQGTLVTVSS VL: EIVLTQSPATLSLSPGERATLSCRASQSVSSYLAWYQQKPGQAPRLLIYDASNRATGIPARFSGSGSGTDFTLTISSLEPEDFAVYYCQQRSNWPPTFGGGTKVEIKR	–	–	–	–	–	0.017 nM	–	–	EC50 (cynomolgus OX40 on cells [8]): 0.06 nM; EC50 (NK92 cell-mediated ADCC, calcein release) (human OX40 on cells [9]): 0.004 µg/mL; IFNγ EC50, CD4 T cells + CHO-CD3-CD32A (human OX40 on cells [7]): 0.044 nM; EC50 (human OX40 on cells [10]): 0.06 nM
20C1 (antibody, V domains shown, also called 20C1.F2.D1; 20C1.F2) VH: EAQLVQSGGGLVHPGGSLRLSCADSGFTFSSYAMYWVRQAPGKGLEWVSAIDTDGGTFYADSVRGRFTISRDNAKNSLYLQMNGLRAEDMAVYFCARLGEGYFFDYWGQGTLVTVSS VL: EIVLTQSPATLSLSPGERATLSCRASQSVSSYLAWYQQKPGQAPRLLIYDASNRATGIPARFSGSGSGTDFTLTISSLEPEDFAVYYCQQRSNWPPTFGGGTKVEIK	3.22 nM	0.000209 s⁻¹	64800 M⁻¹ s⁻¹	0.34 nM	0.068 nM	0.008 nM	0.17 nM	0.1 nM	IL-2 EC50, SEB PBMC, soluble crosslinker (human OX40 on cells [9]): 1.3 to 2 nM; EC50 (human OX40 on cells [12]): 6.13 nM; EC50 (human OX40 on cells [14]): 12.1 nM
OX40.20 (antibody, human IgG1, kappa, V domains shown) VH: EVQLVQSGGGLVQPGGSLRLSCAGSGFTFSSYAMYWVRQAPGKGLEWVSAIDTSGGTFYADSVRGRFTISRDNAKNSLYLQMNSLRAEDTAVYFCARLGEGYFFDYWGQGTLVTVSS VL: EIVLTQSPATLSLSPGERATLSCRASQSVSSYLAWYQQKPGQAPRLLIYDASNRATGIPARFSGSGSGTDFTLTISSLEPEDFAVYYCQQRSNWPPTFGGGTKVEIKR	–	–	–	–	–	–	–	–	binding result (human OX40 on cells [15]): binds
20B3 (antibody, V domains shown, also called 20B3.G12.A2; 20B3.G2) VH: EVQLVESGGGLVQPGGSLRLSCAASGFTFSSYDMHWVRQTTGKGLEWVSVIGTAGDTYYPGSVKGRFTISRENAKNSLYLQMNSLRAGDTAVYYCARGGMGNYFDYWGQGTLVTVSS VL: EIVLTQSPATLSLSPGERATLSCRASQSVSSYLAWYQQKPGQAPRLLIYDASNRATGIPARFSGSGSGTDFTLTISSLEPEDFAVYYCQQRSNWPLTFGGGTKVEIK	3.71 nM	0.000201 s⁻¹	54200 M⁻¹ s⁻¹	0.93 nM	1.4 nM and 1 nM to 1.5 nM (2×)	0.008 nM	1.18 nM	0.34 nM	IC50 (human OX40 on cells [16]): 1.17 nM; EC50 (human OX40 on cells [17]): 4.54 nM; EC50 (human OX40 on cells [18]): 3.86 nM
